Values quoted from earlier work in paper PMC5758107.
Values joined by “and” are separate entries in the source; they are usually repeats but may differ in a detail not shown here. Equal values may be shown once.

Molecular target: Foc ribosome-nascent chain complex (Escherichia coli) (UniProt P68699)
Experiment: fluorescence correlation spectroscopy

Sequence of UniProt P68699 (P68699 whole entry, one chain of several): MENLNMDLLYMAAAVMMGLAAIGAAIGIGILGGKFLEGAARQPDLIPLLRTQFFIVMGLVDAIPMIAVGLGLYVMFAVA

- Kd: 210 nM and 85 nM
Substance: YidC (from UniProt P25714)
